Assay results from patent US20260242478A1 (published 2026).
Where no end group is shown, it is not given here.

B1: Phage-3206 (peptide)
peptide: TVVKCVPEWMCEWL
modifications: cysteine pairing not given here; also: fused to phage pIII, linker and order not given here
notes: Peptide-180 library clone, tested as clonal phage supernatant; not shown: pIII filament protein of the bacteriophage, to which the peptide is fused
B2: Phage-3201 (peptide)
peptide: VVPLCIPQWMCAVF
modifications: cysteine pairing not given here; also: fused to phage pIII, linker and order not given here
notes: as for B1
B3: Phage-3203 (peptide)
peptide: VSVRCEPEWMCMGF
modifications: cysteine pairing not given here; also: fused to phage pIII, linker and order not given here
notes: as for B1
B4: Phage-3200 (peptide)
peptide: VTPLCVPKWMCELF
modifications: cysteine pairing not given here; also: fused to phage pIII, linker and order not given here
notes: as for B1
B5: Phage-3199 (peptide)
peptide: VTVRCEPAWMCMGF
modifications: cysteine pairing not given here; also: fused to phage pIII, linker and order not given here
notes: as for B1
B6: Phage-3211 (peptide)
peptide: PEAMCRPTWMCAGF
modifications: cysteine pairing not given here; also: fused to phage pIII, linker and order not given here
notes: as for B1
B7: Phage-3207 (peptide)
peptide: HDPACVPSWMCFGF
modifications: cysteine pairing not given here; also: fused to phage pIII, linker and order not given here
notes: as for B1
B8: Phage-3202 (peptide)
peptide: VVVSCIPTWMCVGF
modifications: cysteine pairing not given here; also: fused to phage pIII, linker and order not given here
notes: as for B1
B9: Phage-3210 (peptide)
peptide: DTPKCIPQWMCVGF
modifications: cysteine pairing not given here; also: fused to phage pIII, linker and order not given here
notes: as for B1
B10: Phage-3204 (peptide)
peptide: LERLCQPSWMCTGF
modifications: cysteine pairing not given here; also: fused to phage pIII, linker and order not given here
notes: as for B1
B11: Phage-3205 (peptide)
peptide: VVKICQPDWMCWGF
modifications: cysteine pairing not given here; also: fused to phage pIII, linker and order not given here
notes: as for B1
B12: Phage-3239 (peptide)
peptide: DSVLCVPSWMCHGF
modifications: cysteine pairing not given here; also: fused to phage pIII, fusion site not given here
B13: Phage-3208 (peptide)
peptide: PFAYCVPQWMCEAF
modifications: cysteine pairing not given here; also: fused to phage pIII, linker and order not given here
notes: as for B1
B14: Phage-3209 (peptide)
peptide: DHHICRPAWMCMGL
modifications: cysteine pairing not given here; also: fused to phage pIII, linker and order not given here
notes: as for B1
B15: Phage-3212 (peptide)
peptide: TVPLCKPLWMCYGF
modifications: cysteine pairing not given here; also: fused to phage pIII, linker and order not given here
notes: as for B1

Key:
[1] = target: T1, PSMA Fab (006 PSMA Fab); assay: phage ELISA; biotinylated PSMA Fab on neutravidin plate, clonal phage supernatant, anti-M13 HRP; blocking buffer alone
T1 construct: also called Anti-PSMA Fab; anti-PSMA Fab
Procedure: (§1) Clonal phage were harvested as crude supernatants and screened via standard ELISAs. […] Prior to the addition of clonal phage. wells were incubated with blocking buffer and PSMA antigen or blocking buffer alone. Without washing or aspirating, clonal phage supernatants were then added to the wells and incubated for a short time. Wells were then washed followed by detection of bound phage using a horse radish conjugated anti-M13 antibody.

[2] = target: T1, PSMA Fab (006 PSMA Fab); assay: phage ELISA; biotinylated PSMA Fab on neutravidin plate pre-incubated with PSMA antigen as competitor, clonal phage supernatant, anti-M13 HRP
Procedure: as §1

[3] = target: T2, PSMA Fab; assay: phage binding ELISA; biotinylated PSMA Fab on neutravidin plate, clonal phage supernatant, anti-M13 HRP detection; blocking buffer alone;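 also: before phage were added, wells were preincubated with blocking buffer either containing PSMA antigen or without it, and phage were then added with no wash in between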
T2 construct: also called Anti-PSMA Fab; 006 PSMA Fab
Procedure: as §1

[4] = target: T2, PSMA Fab; assay: phage binding ELISA; biotinylated PSMA Fab on neutravidin plate, wells pre-incubated with PSMA antigen as competitor, clonal phage supernatant, anti-M13 HRP detection
Procedure: as §1

[5] = target: T3, PSMA Fab; assay: clonal phage ELISA; biotinylated PSMA Fab on neutravidin plate; anti-M13 HRP detection
T3 construct: also called Anti-PSMA Fab; 006 PSMA Fab
Procedure: as §1

[6] = target: T3, PSMA Fab; assay: clonal phage ELISA; biotinylated PSMA Fab on neutravidin plate, wells pre-incubated with PSMA antigen as competitor; anti-M13 HRP detection;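 also: crude clonal phage supernatants added to antigen-treated wells without a wash, incubated briefly, then bound phage read out via horse radish–conjugated anti-M13 antibody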
Procedure: as §1

Binder | Phage binding ELISA signal, Anti-PSMA Fab [1] | Phage binding ELISA signal, Anti-PSMA Fab with PSMA antigen [2] | Phage binding ELISA signal, Anti-PSMA Fab [3] | Phage binding ELISA signal, Anti-PSMA Fab in presence of PSMA [4] | also measured
VTHSCVPAWMCVGL [Phage-3248] | 1.93 | 0.091 |  |  | 
GVIACKPHWMCTGF [Phage-3251] | 1.93 | 0.085 |  |  | 
QDIVCRPSWMCHGF [Phage-3246] | 1.94 | 0.0762 |  |  | 
B1 |  |  | 1.98 | 0.0606 | 
B2 |  |  | 1.98 | 0.0757 | 
DGFICRPEWMCQWL [Phage-3256] |  |  |  |  | Phage binding ELISA signal, Anti-PSMA Fab [5]: 1.93; Phage binding ELISA signal, Anti-PSMA Fab in presence of PSMA [6]: 0.0653
SIPKCMPEWMCIGL [Phage-3253] |  |  |  |  | Phage binding ELISA signal, Anti-PSMA Fab [5]: 1.93; Phage binding ELISA signal, Anti-PSMA Fab in presence of PSMA [6]: 0.0587
MVERCIPVWMCEGF [Phage-3241] | 1.94 | 0.0937 |  |  | 
B3 |  |  | 1.98 | 0.0741 | 
B4 |  |  | 1.98 | 0.0878 | 
B5 |  |  | 1.98 | 0.0999 | 
B6 |  |  | 1.97 | 0.0674 | 
IVPWCKPAWMCAVS [Phage-3255] |  |  |  |  | Phage binding ELISA signal, Anti-PSMA Fab [5]: 1.93; Phage binding ELISA signal, Anti-PSMA Fab in presence of PSMA [6]: 0.12
NILRCEPMWMCTGF [Phage-3245] | 1.94 | 0.0977 |  |  | 
B7 |  |  | 1.98 | 0.0668 | 
YGALCVPAWMCSGF [Phage-3254] |  |  |  |  | Phage binding ELISA signal, Anti-PSMA Fab [5]: 1.93; Phage binding ELISA signal, Anti-PSMA Fab in presence of PSMA [6]: 0.0866
LSAMCVPPWMCTGF [Phage-3244] | 1.94 | 0.138 |  |  | 
QPGYCVPQWMCMGF [Phage-3258] |  |  |  |  | Phage binding ELISA signal, Anti-PSMA Fab [5]: 1.92; Phage binding ELISA signal, Anti-PSMA Fab in presence of PSMA [6]: 0.0948
NVPVCIPDWMCVGF [Phage-3250] | 1.93 | 0.0851 |  |  | 

Binder | Phage binding ELISA signal, Anti-PSMA Fab [1] | Phage binding ELISA signal, Anti-PSMA Fab with PSMA antigen [2] | Phage binding ELISA signal, Anti-PSMA Fab [3] | Phage binding ELISA signal, Anti-PSMA Fab in presence of PSMA [4] | also measured
VNVRCEPSWMCTGL [Phage-3243] | 1.94 | 0.0801 |  |  | 
B8 |  |  | 1.98 | 0.103 | 
B9 |  |  | 1.97 | 0.0677 | 
MMHNCIPYWMCAGF [Phage-3249] | 1.93 | 0.101 |  |  | 
GLALCKPAWMCQGF [Phage-3247] | 1.93 | 0.0706 |  |  | 
B10 |  |  | 1.98 | 0.0739 | 
B11 |  |  | 1.98 | 0.0655 | 
B12 | 1.94 | 0.0834 |  |  | 
LGNLCVPPWMCQGF [Phage-3257] |  |  |  |  | Phage binding ELISA signal, Anti-PSMA Fab [5]: 1.92; Phage binding ELISA signal, Anti-PSMA Fab in presence of PSMA [6]: 0.241
AEMRCIPQWMCSGL [Phage-3259] |  |  |  |  | Phage binding ELISA signal, Anti-PSMA Fab [5]: 1.92; Phage binding ELISA signal, Anti-PSMA Fab in presence of PSMA [6]: 0.138
B13 |  |  | 1.98 | 0.0639 | 
PTPVCKPGWMCDLF [Phage-3261] |  |  |  |  | Phage binding ELISA signal, Anti-PSMA Fab [5]: 1.92; Phage binding ELISA signal, Anti-PSMA Fab in presence of PSMA [6]: 0.0845
B14 |  |  | 1.97 | 0.0876 | 
B15 |  |  | 1.97 | 0.184 | 
MPMHCVPSWMCEGF [Phage-3252] | 1.93 | 0.0901 |  |  | 
ETSMCRPSWMCEGF [Phage-3242] | 1.94 | 0.0918 |  |  | 
GFRICEPEWMCVGF [Phage-3240] | 1.94 | 0.0629 |  |  | 
ENVRCEPMWMCKGF [Phage-3260] |  |  |  |  | Phage binding ELISA signal, Anti-PSMA Fab [5]: 1.92; Phage binding ELISA signal, Anti-PSMA Fab in presence of PSMA [6]: 0.0648
